Data reported in the supplement of paper PMC7877785.
± gives the uncertainty stated by the source.

Experiment: self-splicing fitness, log relative to wild type (ln ratio); higher = more splicing; Tetrahymena group I intron in knt gene, E. coli kanamycin selection, DiMSum; sequences stand for … in CUCUCU…GGAGGGAAAAGUUAUCAGGCAUGCACCUGGUAGCUAGUCUUUAAACCAAUAGAUUGCAUCGGUUUAAAAGGCAAGACCGUCAAAUUGCGGGAAAGGGGUCAACAGCCGUUCAGUACCAAGUCUCAGGGGAAACUUUGAGAUGGCCUUGCAAAGGGUAUGGUAAUAAGCUGACGGACAUGGUCCUAACCACGCAGCCAAGUCCUAAGUCAACAGAUCUUCUGUUGAUAUGGAUGCAGUUCACAGACUAAAUGUCGGUCGGGGAAGAUGUAUUCUUCUCAUAAGAUAUAGUCGGACCUCUCCUUAAUGGGAGCUAGCGGAUGAAGUGAUGCAACACUGGAGCCGCUGGGAACUAAUUUGUAUGCGAAAGUAUAUUGAUUAGUUUUGGAGUACUCGUGGUCG
Outline: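 Fitness was computed with DiMSum as the error-weighted combination of replicate fold changes, kanamycin versus none, each normalised to wild type. The library randomised all eight intron nucleotides of the P1ex region, with the intron placed in the knt kanamycin-resistance gene on pET-22b(+) in E. coli BL21(DE3). Six replicate transformations were grown overnight at 37°C or 30°C on LB agar with or without 25 μg/mL kanamycin, plus 100 μg/mL carbenicillin, 50 μM IPTG and 0.2% rhamnose. Pooled colonies were amplicon-sequenced on an Illumina HiSeq 2500.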

| Sequence | self-splicing fitness (ln) (30 °C) | self-splicing fitness (ln) (37 °C) |
| --- | --- | --- |
| UGUUAGCAAUAUUACGUGCU | -1.95 ± 0.13 | -1.51 ± 0.13 |
| UGUUAGCAAUAUUACGUUAA | -1.85 ± 0.27 | -0.838 ± 0.15 |
| UGUUAGCAAUAUUACGUUCC | -2.47 ± 0.29 | -2.03 ± 0.41 |
| UGUUAGCAAUAUUACGUUUC | -3.91 ± 0.46 | -2.06 ± 0.33 |
| UUAAAGCAAUAUUACGAAGG | -0.779 ± 0.14 | -1.09 ± 0.18 |
| UUAAAGCAAUAUUACGACCG | -0.379 ± 0.12 | 0.397 ± 0.16 |
| UUAAAGCAAUAUUACGAGGA | -1.84 ± 0.13 | -0.545 ± 0.16 |
| UUAAAGCAAUAUUACGAGUG | -0.826 ± 0.058 | -0.0213 ± 0.08 |
| UUAAAGCAAUAUUACGCAUA | -0.633 ± 0.072 | 0.164 ± 0.11 |
| UUAAAGCAAUAUUACGCCCC | -0.451 ± 0.27 | 0.901 ± 0.38 |
| UUAAAGCAAUAUUACGCCCU | -0.437 ± 0.11 | 0.33 ± 0.14 |
| UUAAAGCAAUAUUACGCCUG | 0.63 ± 0.16 | 1 ± 0.17 |
| UUAAAGCAAUAUUACGCUAC | -3.55 ± 0.26 | -1.91 ± 0.2 |
| UUAAAGCAAUAUUACGGAUA | -0.925 ± 0.13 | -0.197 ± 0.16 |
| UUAAAGCAAUAUUACGGCAA | 0.101 ± 0.12 | 0.186 ± 0.16 |
| UUAAAGCAAUAUUACGGCGU | -0.257 ± 0.068 | 0.33 ± 0.09 |
| UUAAAGCAAUAUUACGGGUU | -3.04 ± 0.15 | -1.46 ± 0.13 |
| UUAAAGCAAUAUUACGGUUG | -1.13 ± 0.071 | -0.199 ± 0.089 |
| UUAAAGCAAUAUUACGUAAG | -0.67 ± 0.082 | -0.258 ± 0.11 |
| UUAAAGCAAUAUUACGUAUC | -2.17 ± 0.12 | -1.87 ± 0.16 |
| UUAAAGCAAUAUUACGUCUG | 0.0385 ± 0.075 | 0.255 ± 0.096 |

| Sequence | self-splicing fitness (ln) (30 °C) | self-splicing fitness (ln) (37 °C) |
| --- | --- | --- |
| UUAAAGCAAUAUUACGUUAG | -0.59 ± 0.095 | -0.125 ± 0.097 |
| UUACAGCAAUAUUACGAAGC |  | -1.41 ± 0.4 |
| UUACAGCAAUAUUACGACAU | -1.971 ± 0.014 | -1.02 ± 0.033 |
| UUACAGCAAUAUUACGACUU | -1.06 ± 0.11 | -0.932 ± 0.11 |
| UUACAGCAAUAUUACGAGCU | -3.55 ± 0.31 | -3.12 ± 0.34 |
| UUACAGCAAUAUUACGAGUA | -1.5 ± 0.14 | -0.933 ± 0.11 |
| UUACAGCAAUAUUACGAUUA | -0.238 ± 0.094 | -0.0645 ± 0.089 |
| UUACAGCAAUAUUACGCAGC | -4.38 ± 0.26 | -3.01 ± 0.16 |
| UUACAGCAAUAUUACGCCUU | -2.35 ± 0.22 | -0.83 ± 0.17 |
| UUACAGCAAUAUUACGGAGA | -1.79 ± 0.1 | -1.11 ± 0.13 |
| UUACAGCAAUAUUACGGAGG | -2.31 ± 0.22 | -2.1 ± 0.36 |
| UUACAGCAAUAUUACGGGCC | -3.28 ± 0.19 | -3.55 ± 0.42 |
| UUACAGCAAUAUUACGGGGU | -4.73 ± 0.22 | -3.21 ± 0.17 |
| UUACAGCAAUAUUACGGGUG | -1.05 ± 0.061 | -0.414 ± 0.077 |
| UUACAGCAAUAUUACGGUGU | -4.36 ± 0.46 | -2.23 ± 0.21 |
| UUACAGCAAUAUUACGUAAG | -0.248 ± 0.068 | -0.257 ± 0.097 |
| UUACAGCAAUAUUACGUACA | -0.278 ± 0.087 | 0.137 ± 0.1 |
| UUACAGCAAUAUUACGUACU | -0.865 ± 0.1 | -0.831 ± 0.096 |
| UUACAGCAAUAUUACGUAGA | -1.01 ± 0.067 | -0.372 ± 0.081 |
| UUACAGCAAUAUUACGUCCA | -0.325 ± 0.096 | -0.181 ± 0.11 |
| UUACAGCAAUAUUACGUGGU | -3.33 ± 0.13 | -2.36 ± 0.13 |
